Our source for the protein production values is a protein production outcome set (Wang et al. 2014).

The series in a line: label from the status in PepcDB records.
Turning to “MPGKGEGSPVGIAILGYGTVGSQVLRLLTENHNDFQHRAGGPLEIKGVAASSVEKHRGSLADQLGLLTDDARSLIARDDVDIVVEVIGGIDYPRELILEALHSGKSVVTANKALVAAHSEELAAAADEAGVDLYFEAAVAAAIPVLGPLRRSLAGDQIQSVAGIVNGTTNFILDAMDSTGASYDDMLAEATRLGYAEADPTADVEGHDAASKAAILASLAFHTRVTYADVYCEGISKITADDINAAKEAGFTIKLLAICERLNVDGVEKVSARVHPTLVPRNHPLASVDKSFNAIFVEAEAAGRLMFYGNGAGGNPTASAVLGDIVGAARNKVFGGRAPGESTYADLPIAPFGEVPTRFHIDMEVEDRVGVLADLAKTFSNHGISLRTVRQAEKDGHARLIVVTHTAKESELEATVEQIKNSDSVKKINSVIRLAGLEHHHHHH”, the protein production entry is “not failed”. Under “MPGPKKPVTPEDIIRLTFVSNPSVSPEGDKVAYLATKADEKENTYRSGIWLAEEDSYRPLTGGPYDRCPAWSPDGEIIAFSRTVNSNQRKRHYIAIVSPKGGEPQVLHESVSPATSIKWSSQGSMIGYLSRKPTGREWKPYSERDVLEIDRIPVWFDSEGWVFDRYWGLTVISYPGGEVLLEKGGVNYNIVDFDFAPDDNTIVYAVSTDMKKPFIHKLVLWDLASGREKTLIEGLTIAAVAFDPRGRYIAVKANDRKRGLFSHYKIFVYDLNSEEFVCLTCDLDLNTLNTVNSDARGPSCLRGMYWDDNGHLYYGVHNAGRMVVMKSRPLGEAEAVLDPSSATVDDFSISRGGDTIAYVKMGPTSPPDIYIYRDDNEYRLTDHNAWFAESRSLAEPVRLQVQSPLGGSIDAWILLPPDAGECSGCLPWILYIHGGPKTSYGYAFIHEFQMLASQGFAVIYSNPRGSDGYSEEFADLRGRYGVDDYSELMKVVDEALSDFPQLDPQRGGVTGGSYGGYMTNVIVTKTRRFKAAVTQRSCSNWISFYGESDIGWYFAPELISAQEPWRDLEKYVDFSPLFSVENIETPLLIIHSTEDFRCPLSGAIQLFTALKLKGVETRLLVFPGENHNLSRSGTPKRRVARLRAIASWFKEHLGSQQRG” stands “failed”; under “MPHDDHEHHHAADSAGAQGRLVWALILTGGFVVFEALAGWKANSLALLTDAVHNLSDVLALGLSWYAMRLTAQPAHAAKTFGYHRAGILAALANSAGLVGVALYILYDAYVRLLSPAPVQADILIGVGGAALLVNAFTAWLVHHGSHDDLNMRSAFLHLLGDVVSTLGAIAAGVAIRYTGLYWLDPAVSVLIALLILWNAKGLMAEVMDILLESTPRDVDMGSMVRDMMQVEGVHGVHHLHVWSISRQLRMLSAHIVTDDIRLSEGEGLQKRVTRLLAQRYGIAHTTLQLESESCQPDSLYCDISRPNHRYHGE”, “failed”; under “MPHSRPLSRLRASLILLLVSFIWGSAFVAQKTAFDAVEGATAPALGPLAFTGARFLLGALVVLPFALRENRQARSRGAPGAGLLAIFCGIGAVLFAASFTQQLGIIGTSVTNAGFLTALYVPLVPVVALVIFRQSVRKMIWPGAAGCLAGLWLLTGAATNGLSALTAGDLWVLVGALFWAFHVTVVGVMATRSGRPLTLAAAQFLTCGVLGWAGAFAFETPTLAGMAAIAPEIAYAGILSVGVAFTLQVVAQRHTHPAAAAIILSMEMVFASLAAVVVLGERLSGVQWLGAGLILASIIAVESAAALGDRRRGAAGALTP”, “failed”. Regarding “MPHVRPSNAWRFLRTLWLGAWLAGWALLAQAQQLAPVPEFGARVVDQSGVLDAAQRQRLEAQLAALEQRKGAQVAVLIVPSTAPETIEQYATRAFEKWKIGRDKVDDGVLLLMASDDRALRIEVGYGLEGAIPDSAAGRIINEYIVPRLRAGDWPGAVQAGVTALERRIEGEELPPPAASGRDEGSRLAGIRGWLGENGIAALVVLLILPGPIAAALAGVGVAIYMQSISAGLAMALLVLGIKVIIKALPSGGGGGGGGGGGSGGGGFGGWRGGSRGGSGSGGFGGFRGGGGGRSGGGGASGRWLEHHHHHH”, the protein production result was “failed”. The result for “MPIFPKPKVTVILANLGTPDVPTASAVRAFLKQFLSDQRVIEIPKLLWKIILYSFVLPFRPKRVAHAYASVWGQDSPMREILFAQTDALKRQLISHYPQLDLNIVPAMTYGNPGVQHILKDLAASPQEHVILLPLFPQYSATSTAPLYDAFANWIPKQRHLPGLTIIKDYYRHPVFIQALVSSVQRFQQQHGKPQKLLMSFHGIPQPYADKGDPYADRCRETARLVAKQLGLTPDDWAISFQSRFGKQEWVKPYTDELLTTWAANGIKSVQILSPAFSADCLETLEELEIQNAELFLEAGGTSYQYIPALNTSVEHLELLRQLLQAHLDALNYSLAYSAH” reads “failed”; that for “MPINFHDANNKYTYAQRNAHISWREMIKSITSIQNKRIVDIGCGGGIYTKELALMGAKSVVGIDFSKEILQAAKENCSGFSNISFIHGDAHSTPYPNDTFDIVISRAVIHHLQDIPTFLREASRILKKNGVLIVQDRTIEDCTIPGSPEHIRGYFFSTFPKLIETESKRRPKTTTIQQELQKYFLHVFPTQTQWEVRKIHDSVEALLQDLSPRTGRSILYELTDYELSQLLQQVQTALQNVSPIIEKDRWTIWSAMKL”, “failed”; that for “MPIPQATADAFCALTGDDQWIHIDPARAEAEGLAGGDTVLPGALLLSLAVGGLGKALGYPEGTRSWQRSYERVRFLRPAPVGSRLRLEARESRRRPAGTGREVVVANVSLYSDLVEAGPVMEGCFTSLLEVAVQPLEHHHHHH”, “failed”. The result for “MPIRRRTSGNDRKNIGPRMEVARVREPFSFGVPERRRFAMQFGYDMRPSFWQEVRSNSHLVIAAVGTAALLGVAAVALWLALPTSERQAAASQEQSIPSIPVKTMKIVPAGTTVAAATVPQPARKSDQVSPTVAVAKANIQALAANDPRWTEAQPKTASAAPDQAAAPSQAANQAEPAPNKPAVTAAFAPSATDTDAASELAKVAAPAPAAGSNPDGAKTAAIPEVQPQAPEQQPTASDDGSKARAKPPKVAAAGNGRILRPVTMRSGPKKNAAAIGTVPARTSVQVMICKQWCQIVYNGKTGWVYKSYIKTGG” reads “failed”; that for “MPISEDLKQAIRQRARYICEYCHSPERLSANRFTIDHVIPKSLGGSDAFNNLALACRRCNERRYNFVASIDPQTKTIVAIFNPRQQNWAEHFIWTNRGIIIQGTTTTGRATCIRLDLNDTRYPEEDSIQETRRFWLKTGLHPPIDDPCKNLEHHHHHH”, “not failed”; that for “MPIVARSSRVPWVIKYRPKRVEDVVNQDQAKKILVPWFKAWLEGRKPDKRAALLYGPPGVGKTSLVEAIASEFNLEMIELNASDYRRRSDIERIVGAASRKRSMFKRGVVILLDEVDGINPREDAGGIEALLSVIKTTENPIVMTANDPWKDFLRPLREVSLMVEFRPLTLTHIVAVLQRICEAERIECEREALRYIAERSEGDLRSAINDLQAVAEGYGRVTLTLAREIVRGREKSIDIWRTLNQVFYKPRQAWMARKAVSQSEKDYEELIAWINDNIPRKYGEPSDLFRAFDALARATVFLGRAKFGGNWELLSYVFDLMGPGVAYARMEGEVLKTRYSYPEKIRMMAQLRGVRETREKLAEVLAKRLLMSRRAVKTEVLPILHYIFRSSRDPTKPAMIALEYGLTEKMVELLAGQRKSEILKAMATVKKARLGEKPLEPQEAKARRRGEKASRDEGRKAGKRERKGVGLDFFLGEQ”, “failed”. For the sequence “MPKAINYKANSVVYFSGDFDERVFLLNTGSIALTSIDIETGEQVTDYIKTGEFFGVKSALGNYPREESAMVLTDSIVYSFTSKEFEAFAQTNTRIILQMIKVFSRQLRTIHKQLASLLDSEEEKNPEEGLFNVMNAFYSSQHYKAAGQVGTRYKAIYPNGKYISQVDQIVRSTAEVAGRSFGNAEGHNNDAVLAHHEKPAAVTDGTVHLAYNKAEDLFEKGEFEAAYDQYHAVIEAGAGDEITDNAYIGAGKSLHSQKEYVRCLQLLTGFISQHPKSSKIGDALMYLGMCYMDMERPDKAIAFFDKAAILSGADIIGKIRELQKECSSRLQGA”, the protein production result was “failed”. Turning to “MPKIPITLITGFLGSGKTSFLSEYLNQTDHQGVALIINEIGQAALDQRILSVQYCGEKMLYLNAGCVCCNKRLDLVESLKATLNNYEWHGEILRRIIIETTGLANPAPILWTILSDTFLGVHFEIQSVVACVDALNAREHLTNNEAKEQIVFADSVLLTKTDLQNDSAALTKLKERIQALNPSAEIFDKRAIDYESLFSRKNRARNFMPLEHHHHHH”, the protein production result is on record as “failed”.
